Data from article PMC5113044, “Characterisation of a New Family of Carboxyl Esterases with an OsmC Domain” (PLoS ONE, 2016).
Changes are numbered by the printed parent chain. Numbers in names are those of the source.

How the values were obtained:
ΔEstEM = biological target: T1, ΔEstEM (Sinorhizobium meliloti, UniProt Q92Y44); assay: […] min end-point 4-nitrophenol release, […] nm; assay type: biochemical; conditions: 1.5 mM substrate
T1 construct: gene SMa1898; N-terminal His6 (pDEST17), E. coli BL21-AI

ΔEstLA = biological target: T2, ΔEstLA (Roseibium aggregatum, UniProt A0NLQ8); assay: […] min end-point 4-nitrophenol release, […] nm; assay type: biochemical; conditions: 1.5 mM substrate, gum arabic, universal buffer pH 5-11, 30 °C, or Tris-HCl pH 8.5, 5-50 °C
T2 construct: gene SIAM614_09253; N-terminal His6 (pDEST17), E. coli BL21-AI
T2 sequence (A0NLQ8 1-266): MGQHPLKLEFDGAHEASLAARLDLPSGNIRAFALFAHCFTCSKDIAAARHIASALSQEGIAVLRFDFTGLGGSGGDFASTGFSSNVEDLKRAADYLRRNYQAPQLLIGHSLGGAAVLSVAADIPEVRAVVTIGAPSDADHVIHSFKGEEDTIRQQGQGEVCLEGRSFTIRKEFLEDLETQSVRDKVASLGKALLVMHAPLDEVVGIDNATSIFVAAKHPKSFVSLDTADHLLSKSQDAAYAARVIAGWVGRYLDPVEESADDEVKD

ΔEstCAL = biological target: T3, ΔEstCAL (Cellulophaga algicola, UniProt E6X8P4); assay: […] min end-point 4-nitrophenol release, […] nm; assay type: biochemical; conditions: 1.5 mM substrate, gum arabic, universal buffer pH 5-11, 30 °C, or Tris-HCl pH 8.5, 5-50 °C
T3 construct: gene Celal_0286; C-terminal His6 (pEXP5-CT), E. coli BL21-AI

ΔEstCA = biological target: T4, ΔEstCA (Catenulispora acidiphila, UniProt C7Q579); assay: […] min end-point 4-nitrophenol release, […] nm; assay type: biochemical; conditions: 1.5 mM substrate, gum arabic, universal buffer pH 5-11, 30 °C, or Tris-HCl pH 8.5, 5-50 °C
T4 construct: gene Caci_7018; C-terminal His6 (pEXP5-CT), E. coli BL21-AI
T4 sequence (C7Q579 1-255): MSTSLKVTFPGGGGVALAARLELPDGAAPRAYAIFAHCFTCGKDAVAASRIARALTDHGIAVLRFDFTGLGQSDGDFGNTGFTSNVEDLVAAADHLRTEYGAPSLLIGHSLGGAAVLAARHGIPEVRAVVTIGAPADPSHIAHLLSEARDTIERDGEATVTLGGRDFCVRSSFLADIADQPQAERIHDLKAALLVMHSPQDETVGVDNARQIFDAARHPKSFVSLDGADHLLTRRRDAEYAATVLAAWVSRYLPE

ΔEstRD = biological target: T5, ΔEstRD (Roseobacter denitrificans, UniProt Q166H3); assay: […] min end-point 4-nitrophenol release, […] nm; assay type: biochemical; conditions: 1.5 mM substrate
T5 construct: gene RD1_2563; C-terminal His6 (pEXP5-CT), E. coli BL21-AI

ΔEstO = biological target: T6, ΔEstO (Pseudoalteromonas arctica, UniProt D6CHH1); assay: […] min end-point 4-nitrophenol release, […] nm; assay type: biochemical; conditions: 1.5 mM substrate
T6 construct: gene estO; N-terminal His6 (pDEST17), E. coli BL21-AI

purified protein [1] = substrate: O=C(Oc1ccc([N+](=O)[O-])cc1)c1ccccc1; assay: purified protein; assay type: biochemical, Rhodothermus marinus; conditions: 25 mM Tris-HCl pH 8.5, 5% acetonitrile, 0.5% Triton X-100
purified protein [2] = substrate: CCCCCCCC(=O)Oc1ccc([N+](=O)[O-])cc1; assay: purified protein; assay type: biochemical, Rhodothermus marinus; conditions: 25 mM Tris-HCl pH 8.5, 5% acetonitrile, 0.5% Triton X-100
purified protein [3] = substrate: CCCC(=O)Oc1ccc([N+](=O)[O-])cc1; assay: purified protein; assay type: biochemical, Rhodothermus marinus; conditions: 25 mM Tris-HCl pH 8.5, 5% acetonitrile, 0.5% Triton X-100
purified protein [4] = substrate: CCCCCCCCCC(=O)Oc1ccc([N+](=O)[O-])cc1; assay: purified protein; assay type: biochemical, Rhodothermus marinus; conditions: 25 mM Tris-HCl pH 8.5, 5% acetonitrile, 0.5% Triton X-100
purified protein [5] = substrate: CC(=O)Oc1ccc([N+](=O)[O-])cc1; assay: purified protein; assay type: biochemical, Rhodothermus marinus; conditions: 25 mM Tris-HCl pH 8.5, 5% acetonitrile, 0.5% Triton X-100
purified protein [6] = substrate: CCCCCCCCCCCC(=O)Oc1ccc([N+](=O)[O-])cc1; assay: purified protein; assay type: biochemical, Rhodothermus marinus; conditions: 25 mM Tris-HCl pH 8.5, 5% acetonitrile, 0.5% Triton X-100
[7] = gum arabic, universal buffer pH 5-11, 30 °C, or Tris-HCl pH 8.5, 5-50 °C

T1 sequence (Q92Y44 entry or part of it, stated change not applied): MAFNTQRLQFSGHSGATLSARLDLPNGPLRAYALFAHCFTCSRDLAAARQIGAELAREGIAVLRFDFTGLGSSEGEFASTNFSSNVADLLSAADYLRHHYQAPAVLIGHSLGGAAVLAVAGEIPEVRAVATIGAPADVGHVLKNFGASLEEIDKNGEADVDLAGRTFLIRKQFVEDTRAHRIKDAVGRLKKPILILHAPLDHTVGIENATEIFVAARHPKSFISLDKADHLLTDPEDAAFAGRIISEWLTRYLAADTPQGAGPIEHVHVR
T6 sequence (D6CHH1 entry or part of it, stated change not applied): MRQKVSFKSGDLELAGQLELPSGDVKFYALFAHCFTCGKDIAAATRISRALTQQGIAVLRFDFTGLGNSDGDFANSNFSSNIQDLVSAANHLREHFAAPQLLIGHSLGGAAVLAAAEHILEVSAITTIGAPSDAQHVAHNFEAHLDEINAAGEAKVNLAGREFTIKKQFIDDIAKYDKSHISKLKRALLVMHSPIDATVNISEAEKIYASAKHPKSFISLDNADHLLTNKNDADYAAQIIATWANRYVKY
T5 sequence (Q166H3 entry or part of it, stated change not applied): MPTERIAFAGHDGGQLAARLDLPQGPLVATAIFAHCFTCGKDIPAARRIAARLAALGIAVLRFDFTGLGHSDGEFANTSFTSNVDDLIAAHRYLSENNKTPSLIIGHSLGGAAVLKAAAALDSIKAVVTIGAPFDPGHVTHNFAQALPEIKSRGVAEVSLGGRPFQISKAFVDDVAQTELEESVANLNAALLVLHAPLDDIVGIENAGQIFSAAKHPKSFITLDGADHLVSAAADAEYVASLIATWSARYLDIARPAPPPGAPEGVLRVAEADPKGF
T3 sequence (E6X8P4 entry or part of it, stated change not applied): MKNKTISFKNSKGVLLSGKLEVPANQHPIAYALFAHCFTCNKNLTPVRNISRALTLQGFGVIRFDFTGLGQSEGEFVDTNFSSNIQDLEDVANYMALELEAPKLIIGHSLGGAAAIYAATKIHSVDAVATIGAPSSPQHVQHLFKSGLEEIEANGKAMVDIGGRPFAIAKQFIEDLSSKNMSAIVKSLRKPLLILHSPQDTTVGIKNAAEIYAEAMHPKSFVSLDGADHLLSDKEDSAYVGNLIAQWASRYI

O=C(Oc1ccc([N+](=O)[O-])cc1)c1ccccc1 [4NP-benzoate]
30 min end-point 4-nitrophenol release, 410 nm (ΔEstEM; [7]): optimum temperature and pH profiles of each enzyme using p-nitrophenyl benzoate as a substrate | 30 min end-point 4-nitrophenol release, 410 nm (ΔEstLA): optimum temperature and pH profiles of each enzyme using p-nitrophenyl benzoate as a substrate | 30 min end-point 4-nitrophenol release, 410 nm (ΔEstCAL): optimum temperature and pH profiles of each enzyme using p-nitrophenyl benzoate as a substrate | 30 min end-point 4-nitrophenol release, 410 nm (ΔEstCA): optimum temperature and pH profiles of each enzyme using p-nitrophenyl benzoate as a substrate | 30 min end-point 4-nitrophenol release, 410 nm (ΔEstRD; [7]): optimum temperature and pH profiles of each enzyme using p-nitrophenyl benzoate as a substrate | 30 min end-point 4-nitrophenol release, 410 nm (ΔEstO; [7]): optimum temperature and pH profiles of each enzyme using p-nitrophenyl benzoate as a substrate

CCCCCCCCCC(=O)Oc1ccc([N+](=O)[O-])cc1 [4NP-decanoate]
30 min end-point 4-nitrophenol release, 410 nm (ΔEstEM; Tris-HCl pH 8.5): ΔEstEM, ΔEstRD, and ΔEstO showed a preference for decanoate (C10) | 30 min end-point 4-nitrophenol release, 410 nm (ΔEstRD; Tris-HCl pH 8.5): ΔEstEM, ΔEstRD, and ΔEstO showed a preference for decanoate (C10) | 30 min end-point 4-nitrophenol release, 410 nm (ΔEstO; Tris-HCl pH 8.5): ΔEstEM, ΔEstRD, and ΔEstO showed a preference for decanoate (C10)

B1: EstRM (Rhodothermus marinus DSM 4252) (protein)
chain: MQIKTVTFENNRGERLAARLDLPVDTQPVAYALFAHCFTCSKNLKAVTTISRALTTQGYAVLRFDFTGLGESEGDFSETTFATNFEDLRAACRFLSAQYEPPALLIGHSLGGAAVLAVAGEFPEVKAVATIGAPCDPAHVRHLLRPALDTIKTVGEAVVDLGGRPFRIKKQFLEELERVNLEDQVRTMRRPLLLFHSPTDQIVGIENAACLFQAARHPKSFVSLDQADHLLSNSDDAAFVGEVLGAWARRYVGRRPVPDTYRLDPGEARAVVRTGRAHYRTDIAADGHALVADEPAPLGGTDAGPSPYGYLAAALGACTTITLRLYADRKGWPLEAATAYIYHEKVHLNDCTECAEQGIEQTPGGKIDRFTVELTLEGALDAAQRQRLLEIAGRCPVHRTLKSPVVTRTRLRD
notes: full length, 410 residues, His6 tag, E. coli BL21-AI; monomer
Km (purified protein [1]): 292 ± 31 µM | Km (purified protein [2]): 309 ± 70 µM | Km (purified protein [3]): 962 ± 140 µM

B2: ΔEstRM (Rhodothermus marinus DSM 4252; S72A) (protein)
chain: MQIKTVTFENNRGERLAARLDLPVDTQPVAYALFAHCFTCSKNLKAVTTISRALTTQGYAVLRFDFTGLGEAEGDFSETTFATNFEDLRAACRFLSAQYEPPALLIGHSLGGAAVLAVAGEFPEVKAVATIGAPCDPAHVRHLLRPALDTIKTVGEAVVDLGGRPFRIKKQFLEELERVNLEDQVRTMRRPLLLFHSPTDQIVGIENAACLFQAARHPKSFVSLDQADHLLSNSDDAAFVGEVLGAWARRYVGRR
notes: esterase domain, residues 1-255 of 410, OsmC domain removed; N-terminal His6 (pDEST17, E. coli BL21-AI; crystal text says C-terminal His6); monomer
Km (purified protein [2]): 660 ± 60 µM | Km (purified protein [3]): 1050 ± 210 µM

B3: ΔEstRM (Rhodothermus marinus DSM 4252) (protein)
chain: B2 chain with A72S
notes: as for B2
Km (purified protein [1]): 244 ± 12 µM | Km (purified protein [4]): 825 ± 130 µM | Km (purified protein [2]): 490 ± 48 µM | Km (purified protein [3]): 1070 ± 170 µM | Km (purified protein [5]): 3540 ± 800 µM | Km (purified protein [6]): 981 ± 150 µM
